3 substances from US6248712 can be followed below.

A word on the kon: it is the rate constant with which the complex forms. A high value points to faster complex formation.

Assay [1] deals with u-PA bound to u-PAR on the cell surface (human) (UniProt P00749). In words: inhibition kinetics, u-PAR-bound u-PA on PMA-stimulated U937 cells against u-PA in solution.
For assay [2] the target is unchanged. In words: inhibition kinetics, u-PAR-bound u-PA on U937 cells against u-PA in solution.
Assay [3] has the same target. In words: association rate constant from inhibition kinetics of plasminogen activation by u-PAR-bound u-PA on PMA-stimulated U937 cells.
The target is the same in assay [4]. Description: association rate constant from inhibition kinetics of plasminogen activation by u-PAR-bound u-PA on U937 cells.
In assay [5] the target is human single-chain pro-u-PA (human) (UniProt P00749).
The target in assay [6] is human urokinase-type plasminogen activator, active two-chain 54 kD form (human) (UniProt P00749).
Assay [7] addresses u-PA bound to u-PAR on the cell surface (human) (UniProt P00749).

Sequence of plasminogen activator inhibitor type 2 (P05120 whole entry): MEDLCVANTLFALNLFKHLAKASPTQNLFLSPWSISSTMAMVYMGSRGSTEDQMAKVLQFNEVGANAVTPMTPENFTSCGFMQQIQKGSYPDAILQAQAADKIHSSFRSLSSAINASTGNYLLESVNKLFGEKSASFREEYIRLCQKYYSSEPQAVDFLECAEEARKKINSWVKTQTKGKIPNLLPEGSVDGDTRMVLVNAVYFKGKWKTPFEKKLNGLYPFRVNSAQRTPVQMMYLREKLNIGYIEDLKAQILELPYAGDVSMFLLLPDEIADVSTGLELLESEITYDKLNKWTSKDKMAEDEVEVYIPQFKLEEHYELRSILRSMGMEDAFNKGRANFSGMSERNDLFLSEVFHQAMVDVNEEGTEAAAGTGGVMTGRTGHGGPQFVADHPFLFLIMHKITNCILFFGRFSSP
Sequence of human plasmin (P00747 97-810 limits assumed): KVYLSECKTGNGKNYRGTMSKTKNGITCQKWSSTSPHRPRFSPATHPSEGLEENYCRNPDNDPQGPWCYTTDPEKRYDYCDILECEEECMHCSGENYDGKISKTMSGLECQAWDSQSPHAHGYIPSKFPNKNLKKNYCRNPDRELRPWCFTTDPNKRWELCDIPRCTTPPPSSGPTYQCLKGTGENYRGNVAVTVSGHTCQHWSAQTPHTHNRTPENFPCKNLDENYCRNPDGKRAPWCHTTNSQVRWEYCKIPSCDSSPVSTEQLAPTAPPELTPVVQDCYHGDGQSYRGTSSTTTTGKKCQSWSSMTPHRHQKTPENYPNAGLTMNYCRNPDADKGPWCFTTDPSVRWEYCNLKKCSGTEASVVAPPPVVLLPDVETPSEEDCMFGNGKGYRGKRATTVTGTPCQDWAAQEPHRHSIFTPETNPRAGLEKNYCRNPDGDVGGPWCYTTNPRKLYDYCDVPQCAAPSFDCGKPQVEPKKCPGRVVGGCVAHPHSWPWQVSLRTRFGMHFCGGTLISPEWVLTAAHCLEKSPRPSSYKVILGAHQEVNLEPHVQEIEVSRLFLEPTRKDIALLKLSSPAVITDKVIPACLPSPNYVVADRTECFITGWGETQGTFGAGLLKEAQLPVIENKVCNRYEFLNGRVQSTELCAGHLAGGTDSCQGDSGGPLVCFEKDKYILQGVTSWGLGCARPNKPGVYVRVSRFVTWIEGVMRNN

Regarding “plasminogen activator inhibitor type 1 (from UniProt P05121)”, the rate of inhibition relative to u-PA in solution stood at 20% in assay [1] and 60% in assay [2]. For the same substance, the on-rate (kon) in assay [3] stood at 1.7e+06 M⁻¹ s⁻¹; in assay [4], 4.5e+06 M⁻¹ s⁻¹.

Consider “human plasmin (from UniProt P00747) (enzyme)”, for which the generation of u-PA amidolytic activity from pro-u-PA (ng/ml equivalent two-chain u-PA per min) in assay [5] came to 0.6.

“plasminogen activator inhibitor type 2 (from UniProt P05120)”: the Bound plasmin activity (%) at 3 h and 17 h; u-PA activity in medium (%) in assay [6] is 48%. The substance further came in with a Bound plasmin activity (%) after preincubation of the cells and washing in assay [7] of 54%. In assay [2], this substance had an association-rate constant relative to u-PA in solution of 60%. In addition, the kon in assay [3] was determined as 110000 M⁻¹ s⁻¹; in assay [4], 330000 M⁻¹ s⁻¹.
